Reference: PMC9828230
pKd: −log10 of the molar value.

Columns and labels:
Test in all cases: SPR; Biacore X100; biotinylated histone 3 peptides immobilised on a Biotin CAPture chip (about 10 RU); PHD finger flowed at 10 μl/min, 0.39-400 μM; 300 mM NaCl, 10 mM Tris pH 8, 0.05% Tween 20, 0.1 mM TCEP; equilibrium binding isotherm model
[1] = biological target: histone 3 peptide monomethylated at lysine 4 (H3K4me1)
[2] = biological target: histone 3 peptide dimethylated at lysine 4 (H3K4me2)
[3] = biological target: histone 3 peptide trimethylated at lysine 4 (H3K4me3)

MtING1PHD, PHD finger of Medicago ING1 (M180-K247) (domain or fragment)
pKd [1]: 3.90 | pKd [2]: 4.26 | pKd [3]: 4.51
